In a protein production outcome set (Wang et al. 2014):

Assay: label from the status in PepcDB records

## MDRRIAMSLQVLGAGLGRTGTLSLKFALEHLGFGPCYHATEVAANMRTALPLWNAAERGAADWSAIFAGYRSSTDHPGCYYWRQLIEVYPQAKVVLTVRDPDSWFESVTQTILMPGRKSTFVGPEGETFSTFLKQQMGGRSQDRAFMVDYFNRWNQAVIDAVPSDRLLVFSSRQGWAPLCGFLSVPVPHKPYPHLHARPRLRWFTRGLRLPDDVAARERHVREYLQYLREDLFGLEHHHHHH
  protein production: not failed

## MDRSERLIQLISEEGIDAFLIMNIENSARASSVYFSGFTGSFSIILISENTRLLITDSRYTVQAKQETDFEVREVKGGDFIDVLKKTVNDLKIKTIALEEERVSLSLFRRISSAFGDRKFIGIDDEVKQMRMVK
  protein production: failed

## MDRSLLMAIIMLVLGNNIVILSDSLIKLLDGFEAPFQFVLYRQISATLMLLPFMLLFKRPLLPKNIRWHATRAHIFLLGTVFMVISLTTLPLATANAIFYAAPIITVVLARMFFKERVTRLSLITAVLGMVGVLVIVNPSSTNIFALAALVVATTLALNNLLVKKLPAEHSILDTLYLTNLLGIPLASAMAWFEGASFDVSTFLISVGSSLFAMIYAGTCVFAYRAAESNKVTSAEYTGLIGAVILGIVFFTETPDARFYIGSVLIIAPLTVLTLRNSNRSA
  protein production: failed

## MDRYIDGFMKWMPESLFICFILTFLVVTMSVLMTDSPFIGTEKTGGIIYGWVNGFWGLLSFAMQMTILLATGNAVASSPPAHKMFKSLAKLPQTRTQIFIFSIVVGSIFGFLHWGLGMMVAIVFGKELLVQARQKGIKVHTPLFVATLFFTFLPATSGLSGAAVLYSATPDYLRNSVADAYKQVVPESVPLTESVLNLPFISLLVVCMLVPLCFALLAHPKDETKIMELDDEIYHHSLDTASHVVIARNTPAEKMNASRLVMYLVGGAIVSYSLYHFSVVGLSGLDLNCFNFLFLGLGLLLCGQQGPEYYGSLFKDGVMSSWGLVLQFPFYAGIFGIIQSTGLGLEISHFFVAISNGTTWPVFAYLYSALLNIAVPSGGSKFVIEAPYIVPATIEVGNDLGKILQAYQLGDATTNLIVPFWALSYLSNFKLKFNQIVAYTIPCVLVVTGIAIIYLFVF
  protein production: failed

## MDSDETGFEHSGLWVSVLAGLLLGACQAHPIPDSSPLLQFGGQVRQRYLYTDDAQQTEAHLEIREDGTVGGAADQSPESLLQLKALKPGVIQILGVKTSRFLCQRPDGALYGSLHFDPEACSFRELLLEDGYNVYQSEAHGLPLHLPGNKSPHRDPAPRGPARFLPLPGLPPALPEPPGILAPQPPDVGSSDPLSMVGPSQGRSPSYAS
  protein production: failed

## MDSEKALELVKHGATLLFLDVPQYTLVGIDTQIFAVGPAFKGIKMIPPGIHFVFYSSSTRDGREFSPTIGFFVDVAPSQVIVRKWNQQDEWLTKVSEEEEERYSQAVRSLEFDKNLGPYNLKQYGEWRHLSNYITKDVVEKFEPVGGEITVTYESAILKGGPKTAMEIALDTQMKKSKFTTSSTEQPKGNRFYYTSIPRIIKHKGMSGQELTSMNLDKTQLLESVLSKEYKDSEDLLLGELQFSFVAFLMGQSLESFMQWKSIVSLLLGCTSAPFQTRSQLFTKFIKVIYHQLKYGLQKENSGPETGIHALLDDSWLASDSFLHFLCKDFFALVEETSVVDGDLLSWTRKFKELLENRLGWEFQKKSAVDGIYFEEDDEYAPVVEMLDESHGEYMDKTT
  protein production: failed

## MDSGRLAVIALGGNAIAGPGMDVSVESQTAAVKRASSIIADVLADGWRSVITHGNGPQVGYLSEAFEALPPERPRQPLYIATAMTQAWIGLLLKHSLEEELRRRGLNVLVPVVISRVLVDVSDPSFNNPSKPVGPIYGREEAEELSRRYGWVFKRDPRGGFRRVVPSPRPVSIVDRDLIAEASAESPAVVALGGGGVPVVERPGGVLEPVEAVVDKDLASSLLATQLNADLLVILTDVPGVAVNYGREGERWLRRAAASELKKYLREGHFPPGSMGPKVEAAISFVERTGKPAVIGSLEEARQVLSLQAGTVVMLG
  protein production: not failed

## MDSITQAALGASIAGAVAGKTLGRSALLTGALLGTLPDLDVVIDYGTAVANFTQHRGFSHSLFILAPLSLLIAWGLWRWKPLISYQRWLALVGLILITHPLLDAFTTYGTQLFWPIGPPVAINSIFIIDPLYTLPLLAGCLAFLYRPPASRTVAAGLLVSSLYLGWTLIAQQIITDRVRPALANAGMEQAALMVQPMPFNTVLWRATAVSAGQRIEVVTGFLDASDELVLERFPRQPELARLVAELPEARRLEWFTGGFLDYQQNGTQITATDIRLGIPGAHPFTFILAETAEDGLQPLASDRLPRPALNRAALPLLWDRMTGQVPVLCLATLSVPNHGNSC
  protein production: failed

## MDSLIPFDYATLRVLWWLLLGALLIGFAVMDGFDLGVAALLPLVAKTDVERRVVLNVVGPVWEGNQVWLITAGGAIFAAWPLLYAASFSGFYLAMMLVLIALILRPVGFKYRSKMEGTRWRSRWDAVLCFCGVVAALVFGVAMGNIILGVPFGFDAATLRPEYEGHFYQLFKPFALLAGLVSVAMMVMHGGVLLAWRTHDPVSSRARNWGRLAALVTAALFVAGGFWVAYGLDGHVITSAVDMHAPSNPMLKTVELQAGGWMANYEKWPLTWIAPALGVGGALLAFVLLSARANVLAFLASSVSIAGIILTVGFALFPFIMPSSSRPGAGLTVWDGSSSLLTLWIMLLAVAFFLPIITVYTAWVYRVMRGKVTEDSVDGTPNSY
  protein production: failed

## MDSLMTLLSVLIPMFAGFFIRVPKPYLPALDKVLSVLVYAVLLLIGVSLSRVEDLGSRLDDMALTVLWLFVCTVGANLLALAVLGKLFP
  protein production: failed

## MDSRSLSVHDGAMQTLTVPDSGLAPLLPGQRLARGVCRHLRSHDFVSVVELVPAPGLRVDVMALGPKGEIWVVECKSSRADYQSDRKWQGYLDWCDRFFFAVDEAFPVDLLPEGTGLMLADGYDAEILRIGPEGRLAPARRKAVIQGFARHAALRLQGLRDPGAFPG
  protein production: failed

## MDSSLSQKFTLAYASLLGVGGLMGYLKRGSKISLVAGGGSAALFYYVYTELPGNPVLASSIGIVGSAALTGMMGSRYLRTRKVVPAGLVSVVSLVMTGAYLHGLIRSS
  protein production: failed

## MDSSSLEQELRWMKLVWEEAPGDKTEGPLTSPGWSTLFQAVWWGAPSLVMQLLRQGSSVEERDHTGRTPLHLAVMRGHAPLVRLLLQRGALAGAADHTGRTPLHEAAWHGHSNVAELLLRRGASAAACSQTGLTPLHGAAALGRTLLVTSFTVASDSGSDVKDVRGWTAAHWAAACGQLAVLELLSAGGNADLDGALLVSAIAGSTSSLQLLLTLGAKVDTQDSTGATALGLAAGLGHHQMLFFLCCLKKKQERKTHCWDWPLANLDPLEEQKLQELSIPRNLASVPAGGWTPSPGYIFRTVDTFVHGQLMPTEERTTECSLAVSVDLISVRDCSPSPPAGFPPVSALTIHPRADGLAQRN
  protein production: failed

## MDSTGASQIVSALDVIYSPKSNNSQRQEAQKFLDEVKLCSESPFWGYEIALQNPTNSILKYFGLGLLDHAVKKNWNDYDEGKRVALRKWVMELNFGVQDYDTRYIKEKLATLWVEVAKRTWGEALKQTNPTEEQLLTSWVDMDNNLFELWNINQSSRELALIIFRILFEDVFLLDDLIVLKRMTVIQPLCVMIVCPIEVFAIKYKFSDKWTKFKANEEGWFSVWIPELNNALQQNNSEYIIRLLETLKTCLNWPLTEVIVRNDVLSSLLTCLSSNIPRAQSMALDSIHILLTRPYSNESHYQMTIDRVFDNMDLLDSVYESLLFDPTDDIDETKYPIIKKFVDMISCLYVCVPKIKETNGQIQKYFKLVLKTTYNPSLIVSGLTLDLWCTCLRNDEYLPKLEKYVIPDLLQFAADALVYYEQIDGHISKKFAEIDFQSKSEFQTFCSTYRKRIRDIIRLISCVELDLTYDWLNNRLNNYFSSPFGQQVLSSTFLDHKLEPYLGALSQYMIVECFINGCIRWKIWYPTGDDYDEKLDSILQKLEILSNQLIALNLREPLLLKKQIQNFALFLTMLKDNVLFTLLEKIITSATMDYPEINLEERGAESDAVRDLRYACGIELNRMALLMPESLKKIYPDLESVIARIMPNLSYHEKISFKSFLLIIVLKSSLDMKEERFAAIVDPELLAWSDKTTVVGLSDLHWFMERLGIVQIAEYFQRRDIDENSDLLSIPIDDEGKELKSELTKRWQSLFPVRATRMFIHYSMQSIKTDEEFKMLQDLWRPRIVPILPYITRLLYQLQSYHDPDNWKGLPTVVQSFVKYSTIERFWEAGASNKSKDEFIDEHMKAMQTLRDFADSVGHIIRYTREYTLLVLSAISSLGSVFYLLDESPDLLLNSIAIFKPGSNEISPGVSTHGWKHIMNIAIRPILKGCPKDCLGKFMPAFLPKLFEILDLLLCQKWSSHMNDMDMNPVPTDDDQMTEEILEENLLRQLTTVVVRIVIDCVGQGNANPNSAKSRLNNHQMEMRKIIFNDLNTLAPFLKLLNHLISFKDTKCSFNSILVMKCCLTSVLNQNNTVDEYFTFEVMKNLLLNVLCNSAFKDSFHEALYAFTVIFLTLCKEYPSARAFLFEISNGYNIDELYRNLRSVDEYKTQRALMIDFIDWVKSTSGKEDGNVDHAGDERKRQEKREAILKKANERLIKKNKENGDMLDDPNIEDGAVGNLFDDN
  protein production: failed

## MDSVTLACGNGGKETNALIERVFMPYLKEWIVAFDEDAPKFEASGEYCVSTDSFVITPLIFNGGDIGKLCVCGSANDVSVQGGEPLYLNMGFILEEGLEISLLKQILQSIQKELFKANLKLLSLDTKVVPKGSVDKLFINTTCIGKIIKPGISSYHLQQGQAIILSDTIANHGASLFAMRNEIKLKTNLESDCQLLYPLLKPLFLSDLKIDALRDATRGGLASVLNEWANSSRVKIVIEEEKIPLKEETKGICEILGLEPYALANEGVFVLALNQKDAPKALEILKSNEKAKNACVIGKVFENPYPSVVLKNAWGFERILEVPEGELLPRIC
  protein production: failed

## MDSYFLFFIILTSIFIVPQILKRFNVPTITATMLAGIIIGPFGLNLIQTSSTLDTFASFGVIFLMFLAGMEVDNETLKDEFKNSLVLSLFSMLIPAIGGYFIGQYFGLDFIGSLLYAVIFSSHSVGIVYALMDELGLIKSRFGTTVISASVVIDLISLIVISILIKMGGSGINSDIIPFIVLIVAYIIALLIIIPLISKLILNELQKFHVQKIHFILLIILISIIVGEHIGIHPIIGAFIIGIAVSEELTKEEHDKILNENLNAIGYGIFIPLFFLNLGMTTDISVIFNFDNLSLIFVSVVSLISLKIISGYFSLRILDYNKLKSFCGGLLTVPSLTASLVGATLGRDLGILPEKFFVAVVVIALLTSTVAPIYVKNLVSKNYDKLKLN
  protein production: failed

## MDTAGIRLTPKEIVSKLNEYIVGQNDAKRKVAIALRNRYRRSLLDEESKQEISPKNILMIGPTGVGKTEIARRMAKVVGAPFIKVEATKFTEVGYVGRDVESMVRDLVDVSVRLVKAQKKSLVQDEATAKANEKLVKLLVPSMKKKASQTNNPLESLFGGAIPNFGQNNEDEEEPPTEEIKTKRSEIKRQLEEGKLEKEKVRIKVEQDPGALGMLGTNQNQQMQEMMNQLMPKKKVEREVAVETARKILADSYADELIDQESANQEALELAEQMGIIFIDEIDKVATNNHNSGQDVSRQGVQRDILPILEGSVIQTKYGTVNTEHMLFIGAGAFHVSKPSDLIPELQGRFPIRVELDSLSVEDFVRILTEPKLSLIKQYEALLQTEEVTVNFTDEAITRLAEIAYQVNQDTDNIGARRLHTILEKMLEDLSFEAPSMPNAVVDITPQYVDDKLKSISTNKDLSAFIL
  protein production: failed

## MDTAIILGLLVAVFYGVGTFFAKIVCEKNPLFQWIVVNIVGIILCLIILLKYKNIIITDQKILTYAIISAVLVVIGSLLLYYALYKGKASIVVPLSSIGPAITVALSILFLKETLTLPQMIGIVLIIIGIILLSISN
  protein production: failed
